Source: FireProtDB (doi:10.1016/s0301-4622(00)00161-7)
Several values for one entry are separate records, joined by “and”; a condition that tells them apart may be missing. Equal values may be shown once.

B1: Gamma-crystallin S wild type, P06504 (protein)
chain: MSKAGTKITFFEDKNFQGRHYDSDCDCADFHMYLSRCNSIRVEGGTWAVYERPNFAGYMYILPRGEYPEYQHWMGLNDRLSSCRAVHLSSGGQYKLQIFEKGDFNGQMHETTEDCPSIMEQFHMREVHSCKVLEGAWIFYELPNYRGRQYLLDKKEYRKPVDWGAASPAVQSFRRIVE
B2: Gamma-crystallin S wild type, P22914 (protein)
chain: MSKTGTKITFYEDKNFQGRRYDCDCDCADFHTYLSRCNSIKVEGGTWAVYERPNFAGYMYILPQGEYPEYQRWMGLNDRLSSCRAVHLPSGGQYKIQIFEKGDFSGQMYETTEDCPSIMEQFHMREIHSCKVLEGVWIFYELPNYRGRQYLLDKKEYRKPIDWGAASPAVQSFRRIVE

Conditions: pH 7, Sodium phosphate 10 mM, whole UniProt chain shown
[1] = Homo sapiens, 20 °C, Thermal, DSC

| Protein | denaturant midpoint (higher = more stable) (Bos taurus, 20 °C, GdnHCl, Fluorescence) | denaturant midpoint (higher = more stable) (Bos taurus, 20 °C, Urea, Fluorescence) | denaturant midpoint (higher = more stable) (Homo sapiens, 20 °C, GdnHCl, CD) [M] | denaturant midpoint (higher = more stable) (Homo sapiens, 20 °C, GdnHCl, Fluorescence) | heat capacity change of unfolding [1] | unfolding free energy [1] | denaturant midpoint (higher = more stable) (Homo sapiens, 20 °C, Urea, CD) [M] | denaturant midpoint (higher = more stable) (Homo sapiens, 20 °C, Urea, Fluorescence) | heat capacity change of unfolding (Homo sapiens, Thermal, DSC) | unfolding enthalpy (calorimetric) (Homo sapiens, Thermal, DSC) |
| --- | --- | --- | --- | --- | --- | --- | --- | --- | --- | --- |
| B1 | 2.1 M and 1.8 M | 7 M and 6.6 M | – | – | – | – | – | – | – | – |
| B2 | – | – | 1.9 | 2.6 M and 2.5 M | 1.79 kcal/mol/K and 0.84 kcal/mol/K and 1.08 kcal/mol/K | 20.1 kcal/mol and 10 kcal/mol and 11.5 kcal/mol | 7 | 8 M and 7.6 M | 1.79 kcal/mol/K and 0.84 kcal/mol/K and 1.08 kcal/mol/K | 179 kcal/mol and 90.8 kcal/mol and 103 kcal/mol |
